Test results from FireProtDB (doi:10.1021/bi801431x).
Where “and” joins values, the source holds several entries; their conditions need not be identical. Equal values may be shown once.

B1: Aspartate aminotransferase, P00509 (parent)
chain: MFENITAAPADPILGLADLFRADERPGKINLGIGVYKDETGKTPVLTSVKKAEQYLLENETTKNYLGIDGIPEFGRCTQELLFGKGSALINDKRARTAQTPGGTGALRVAADFLAKNTSVKRVWVSNPSWPNHKSVFNSAGLEVREYAYYDAENHTLDFDALINSLNEAQAGDVVLFHGCCHNPTGIDPTLEQWQTLAQLSVEKGWLPLFDFAYQGFARGLEEDAEGLRAFAAMHKELIVASSYSKNFGLYNERVGACTLVAADSETVDRAFSQMKAAIRANYSNPPAHGASVVATILSNDALRAIWEQELTDMRQRIQRMRQLFVNTLQEKGANRDFSFIIKQNGMFSFSGLTKEQVLRLREEFGVYAVASGRVNVAGMTPDNMAPLCEAIVAVL

Variants of: B1
Conditions: Escherichia coli (strain K12); pH 7.5; 25 °C; Urea; Fluorescence; Potassium phosphate 20 mM; reversible: Yes; structure 1AMQ; whole UniProt chain shown

Variant	ddG of mutation (higher = less stable)	denaturant midpoint (higher = more stable)
MFENITAAPADPILGLADLFRADERPGKINLGIGVYKDETGKTPVLTSVKKAEQYLLENETTKNYLGIDGIPEFGRCTQELLFGKGSALINDKRARTAQTPGGTGALRVAADFLAKNTSVKRVWVSNPSWPNHKSVFNSAGLEVREYAYYDAENHTLDFDALINSLNEAQAGDVVLFHGCCHNPTGIDPTLEQWQTLAQLSVEKGWLPLFDFAYQGFARGLEEDAEGLRAFAAMHKELIVASSYSKNFGLYNKRVGACTLVAADSETVDRAFSQMKAAIRANYSNPPAHGASVVATILSNDALRAIWEQELTDMRQRIQRMRQLFVNTLQEKGANRDFSFIIKQNGMFSFSGLTKEQVLRLREEFGVYAVASGRVNVAGMTPDNMAPLCEAIVAVL [E253K]	7.6 kcal/mol and 7.1 kcal/mol	
MFENITAAPADPILGLADLFRADERPGKINLGIGVYKDETGKTPVLTSVKKAEQYLLENETTKNYLGIDGIPEFGRCTQELLFGKGSALINDKRARTAQTPGGTGALRVAADFLAKNTSVKRVWVSNPSWPNHKSVFNSAGLEVREYAYYDAENHTLDFDALINSLNEAQAGDVVLFHGCCHNPTGIDPTLEQWQTLAQLSVEKGWLPLFDFAYQGFARGLEEDAEGLRAFAAMHKELIVASSYSKNFGLYNQRVGACTLVAADSETVDRAFSQMKAAIRANYSNPPAHGASVVATILSNDALRAIWEQELTDMRQRIQRMRQLFVNTLQEKGANRDFSFIIKQNGMFSFSGLTKEQVLRLREEFGVYAVASGRVNVAGMTPDNMAPLCEAIVAVL [E253Q]	6.3 kcal/mol and 5.4 kcal/mol	
MFENATAAPADPILGLADLFRADERPGKINLGIGVYKDETGKTPVLTSVKKAEQYLLENETTKNYLGIDGIPEFGRCTQELLFGKGSALINDKRARTAQTPGGTGALRVAADFLAKNTSVKRVWVSNPSWPNHKSVFNSAGLEVREYAYYDAENHTLDFDALINSLNEAQAGDVVLFHGCCHNPTGIDPTLEQWQTLAQLSVEKGWLPLFDFAYQGFARGLEEDAEGLRAFAAMHKELIVASSYSKNFGLYNERVGACTLVAADSETVDRAFSQMKAAIRANYSNPPAHGASVVATILSNDALRAIWEQELTDMRQRIQRMRQLFVNTLQEKGANRDFSFIIKQNGMFSFSGLTKEQVLRLREEFGVYAVASGRVNVAGMTPDNMAPLCEAIVAVL [I5A]	4.9 kcal/mol and 5.1 kcal/mol	2.81 M and 2.74 M and 5.2 M
MAENITAAPADPILGLADLFRADERPGKINLGIGVYKDETGKTPVLTSVKKAEQYLLENETTKNYLGIDGIPEFGRCTQELLFGKGSALINDKRARTAQTPGGTGALRVAADFLAKNTSVKRVWVSNPSWPNHKSVFNSAGLEVREYAYYDAENHTLDFDALINSLNEAQAGDVVLFHGCCHNPTGIDPTLEQWQTLAQLSVEKGWLPLFDFAYQGFARGLEEDAEGLRAFAAMHKELIVASSYSKNFGLYNERVGACTLVAADSETVDRAFSQMKAAIRANYSNPPAHGASVVATILSNDALRAIWEQELTDMRQRIQRMRQLFVNTLQEKGANRDFSFIIKQNGMFSFSGLTKEQVLRLREEFGVYAVASGRVNVAGMTPDNMAPLCEAIVAVL [F2A]	7.3 kcal/mol and 7.4 kcal/mol	2.28 M and 4.26 M and 5.09 M
MFENIAAAPADPILGLADLFRADERPGKINLGIGVYKDETGKTPVLTSVKKAEQYLLENETTKNYLGIDGIPEFGRCTQELLFGKGSALINDKRARTAQTPGGTGALRVAADFLAKNTSVKRVWVSNPSWPNHKSVFNSAGLEVREYAYYDAENHTLDFDALINSLNEAQAGDVVLFHGCCHNPTGIDPTLEQWQTLAQLSVEKGWLPLFDFAYQGFARGLEEDAEGLRAFAAMHKELIVASSYSKNFGLYNERVGACTLVAADSETVDRAFSQMKAAIRANYSNPPAHGASVVATILSNDALRAIWEQELTDMRQRIQRMRQLFVNTLQEKGANRDFSFIIKQNGMFSFSGLTKEQVLRLREEFGVYAVASGRVNVAGMTPDNMAPLCEAIVAVL [T6A]	1.3 kcal/mol	3.62 M and 4.77 M
MFENITAAPAAPILGLADLFRADERPGKINLGIGVYKDETGKTPVLTSVKKAEQYLLENETTKNYLGIDGIPEFGRCTQELLFGKGSALINDKRARTAQTPGGTGALRVAADFLAKNTSVKRVWVSNPSWPNHKSVFNSAGLEVREYAYYDAENHTLDFDALINSLNEAQAGDVVLFHGCCHNPTGIDPTLEQWQTLAQLSVEKGWLPLFDFAYQGFARGLEEDAEGLRAFAAMHKELIVASSYSKNFGLYNERVGACTLVAADSETVDRAFSQMKAAIRANYSNPPAHGASVVATILSNDALRAIWEQELTDMRQRIQRMRQLFVNTLQEKGANRDFSFIIKQNGMFSFSGLTKEQVLRLREEFGVYAVASGRVNVAGMTPDNMAPLCEAIVAVL [D11A]	5.9 kcal/mol and 5.1 kcal/mol	
MFENITAAPADPILGLADLFRADERPGKINLGIGVYKDETGKTPVLTSVKKAEQYLLENETTENYLGIDGIPEFGRCTQELLFGKGSALINDKRARTAQTPGGTGALRVAADFLAKNTSVKRVWVSNPSWPNHKSVFNSAGLEVREYAYYDAENHTLDFDALINSLNEAQAGDVVLFHGCCHNPTGIDPTLEQWQTLAQLSVEKGWLPLFDFAYQGFARGLEEDAEGLRAFAAMHKELIVASSYSKNFGLYNKRVGACTLVAADSETVDRAFSQMKAAIRANYSNPPAHGASVVATILSNDALRAIWEQELTDMRQRIQRMRQLFVNTLQEKGANRDFSFIIKQNGMFSFSGLTKEQVLRLREEFGVYAVASGRVNVAGMTPDNMAPLCEAIVAVL [K63E E253K]	6.7 kcal/mol and 6.5 kcal/mol	
MFENITAAPADPILGLADLFRADERPGKINLGIGVYKDETGKTPVLTSVKKAEQYLLENETTMNYLGIDGIPEFGRCTQELLFGKGSALINDKRARTAQTPGGTGALRVAADFLAKNTSVKRVWVSNPSWPNHKSVFNSAGLEVREYAYYDAENHTLDFDALINSLNEAQAGDVVLFHGCCHNPTGIDPTLEQWQTLAQLSVEKGWLPLFDFAYQGFARGLEEDAEGLRAFAAMHKELIVASSYSKNFGLYNQRVGACTLVAADSETVDRAFSQMKAAIRANYSNPPAHGASVVATILSNDALRAIWEQELTDMRQRIQRMRQLFVNTLQEKGANRDFSFIIKQNGMFSFSGLTKEQVLRLREEFGVYAVASGRVNVAGMTPDNMAPLCEAIVAVL [K63M E253Q]	5.3 kcal/mol and 4.6 kcal/mol	
MFENITAAPADPILGLADLFRADERPGKINLGIGVYKDETGKTPVLTSVKKAEQYLLENETTKNYLGIDGIPEFGRCTQELLFGKGSALINDKRARTAQTPGGTGALRVAADFLAKNTSVKRVWVSNPSWPNHKSVFNSAGLEVREYAYYDAENHTLDFDALINSLNEAQAGDVVLFHGCCHNPTGIDPTLEQWQTLAQLSVEKGWLPLFDFAYQGFARGLEEDAEGLRAFAAMHKELIVASSYSKNFGLYNEMVGACTLVAADSETVDRAFSQMKAAIRANYSNPPAHGASVVATILSNDALRAIWEQELTDMRQRIQRMRQLFVNTLQEKGANRDFSFIIKQNGMFSFSGLTKEQVLRLREEFGVYAVASGRVNVAGMTPDNMAPLCEAIVAVL [R254M]	3.8 kcal/mol and 3.4 kcal/mol	3.06 M and 3.12 M and 5.19 M
